Measured values reported in PMC3266934, “The Murine Coronavirus Hemagglutinin-esterase Receptor-binding Site: A Major Shift in Ligand Specificity through Modest Changes in Architecture” (PLoS Pathogens, 2012).

Target: the molecule itself
Assay: crystal structure; crystals of the thrombin-released ectodomain, space group P2(1)2(1)2(1), two HE molecules in the asymmetric unit; free HE (2.1 Å) and HE^0 soaked with a sialic acid receptor analogue (2.5 Å); 0.2 M KH2PO4, 0.2 M sodium malonate, 15% PEG3350, 18°C

B1: MHV-S HE ectodomain (mouse hepatitis virus strain S hemagglutinin-esterase, residues 25-403), released from HE-Fc by thrombin cleavage (domain or fragment)
chain: FNEPLNIVSHLNDDWFLFGDSRSDCTYVENNGHPKLDWLDLDPKLCNSGRISAKSGNSLFRSFHFIDFYNYSGEGDQVIFYEGVNFSPSHGFKCLAYGDNKRWMGNKARFYARVYEKMAQYRSLSFVNVSYAYGGNAKPTSICKDKTLTLNNPTFISKESNYVDYYYESEANFTLQGCDEFIVPLCVFNGHSKGSSSDPANKYYTDSQSYYNMDTGVLYGFNSTLDVGNTVQNPGLDLTCRYLALTPGNYKAVSLEYLLSLPSKAICLRKPKSFMPVQVVDSRWNSTRQSDNMTAVACQLPYCFFRNTSADYSGGTHDVHHGDFHFRQLLSGLLYNVSCIAQQGAFVYNNVSSSWPAYGYGHCPTAANIGYMAPVCIYD
notes: also called free MHV-S HE; not shown: Fc (human IgG1), C-terminal, cleaved
binding result: binds

B2: MHV-S HE^0 ectodomain (esterase-inactive, Ser45 replaced by Ala, residues 25-403), released from HE^0-Fc by thrombin cleavage (domain or fragment)
chain: FNEPLNIVSHLNDDWFLFGDARSDCTYVENNGHPKLDWLDLDPKLCNSGRISAKSGNSLFRSFHFIDFYNYSGEGDQVIFYEGVNFSPSHGFKCLAYGDNKRWMGNKARFYARVYEKMAQYRSLSFVNVSYAYGGNAKPTSICKDKTLTLNNPTFISKESNYVDYYYESEANFTLQGCDEFIVPLCVFNGHSKGSSSDPANKYYTDSQSYYNMDTGVLYGFNSTLDVGNTVQNPGLDLTCRYLALTPGNYKAVSLEYLLSLPSKAICLRKPKSFMPVQVVDSRWNSTRQSDNMTAVACQLPYCFFRNTSADYSGGTHDVHHGDFHFRQLLSGLLYNVSCIAQQGAFVYNNVSSSWPAYGYGHCPTAANIGYMAPVCIYD
notes: not shown: Fc (human IgG1), C-terminal, cleaved
binding result: binds
